# Reference: a protein production outcome set (Wang et al. 2014)
# Experiment: label from the status in PepcDB records
row,Sequence,protein production
1,MLPWNFEGEASEPAQDPTMAPHKRQSYEEELANAITHGVGLVLSLIGWVGLLVLSGLAGGGWDLAASAVFGGTLVFLYATSTLYHSVGTARLKRTLRILDHVAIFLLIAGTYTPFAGVLMREGWGWSVLALVWGIALAGLLFKLFSTHRFHPAATTLYLLMGWLGVLFADPMSAALPLGGLLLIVAGGLAYTIGVLFYGWHSLRYSHAIWHVFVLVGSACHYAAVVLYVL,failed
2,MLQIADYIAENYRGKVVEVGIGRFTAVAELLARRGFEVFATDVVERRAPEGCRFYVDDVTKPNLKIYEGASLIYSLRPPPELFSAIVEVSRKVGADCLIKPLYGDYMEARIVNYKGAQFYLIRRENYD,failed
3,MLQPGGTPTKIVCLTQVVTADDLRDDAEYADIMEDMSQEGGKFGNLVNVVIPRPNPDHDPTPGVGKVFLEYADVDGSSKARSGMNGRKFGGNQVVAVYYPEDKYAQGDYED,failed
4,MLQRFYETLSTLRARWTRFTESPMGAWVRTGLRWLFVGGIVAYLAYELTTIGWGEVARALPVTPWFYVLLLLMYGTLPLTEAVLYGTAWGAQYRDLLPVLFRKRVLNNDVLGYSGEAYFYLWARRETNLGTGTVLRTVKDNVVISSVASTSVAFGLLAVFFLTGQIELLRQYLPSEAYTLGAGVAVLIILVSAVVAFRRSILSLPSSLLGLFAAGHVARFVLNNGLQVTQWAVVIPEVSAGTWITLLALYIVIQQVPFVPSRGLVFMSAGVGLSGPLQIPEAPLASMLLAQSLLDRGLNFLVYTGTTAAEAVGDDVEELDDLSIPEEMG,failed
5,MLREPGAADRAAFVELLASPEVHTYLGGPRPRAELERELPGTPERWPGSFVVDLDGEMIGQVLLRRTREHCCPVAVGKVDLGYLFLPRAWGLGYAAEACAAALDWLDCVLPGEPVVLNTQTANTGSMRLAAKLGFTEVERFRAWDAEQWLGLRPPLT,failed
6,MLRFMVRSFASLAISSAYSIPIGLSSVTSILDEDTIIERVCYGYLKCNATCSTEIVIVNYSITLNMSDDVVVKLLNDGYFSLDAGAYFGVVPKAIWSRKFQEIDNTVRLATNVLYITESDGTSILVDSGIGNKFDDKFRKIYRVEKQSDIYEYIRLHGDPNSVRMIINSHLHFDHVGHNADFKNAYAYAQADEFKAARYRNYITKANYRLSASQIKNKVEIGGSKRINGFIRVIKTDGHTPGHQVILINAGGRKIMYFGDIVPSTFHLKLPYRTAIDLDPLKTIEFKKNLVKMAIRENYICIFNHDVETPAAILSGDYSDPKYVKVDI,failed
7,MLRIIVIGTTGSGKTTFARALAQRLGLPHGEQDAWNHEANWQMAPLGRFRARVDTFTSQPAWVMDGNYGKARDLGWARADTLIWLDFPAWLVYSRLVRRTLWRVLTQQELWNGNRETWRGALLDPEGPLRWFWKTHWRRRQETPALAAEFPHLRLVRLRSPGEARRFLAAVGRGHPTALEHHHHHH,failed
8,MLRLDTRFLPGFPEALSRHGPLLEEARRRLLAKRGEPGSMLGWMDLPEDTETLREVRRYREANPWVEDFVLIGIGGSALGPKALEAAFNESGVRFHYLDHVEPEPILRLLRTLDPRKTLVNAVSKSGSTAETLAGLAVFLKWLKAHLGEDWRRHLVVTTDPKEGPLRAFAEREGLKAFAIPKEVGGRFSALSPVGLLPLAFAGADLDALLMGARKANETALAPLEESLPLKTALLLHLHRHLPVHVFMVYSERLSHLPSWFVQLHDESLGKVDRQGQRVGTTAVPALGPKDQHAQVQLFREGPLDKLLALVIPEAPLEDVEIPEVEGLEAASYLFGKTLFQLLKAEAEATYEALAEAGQRVYALFLPEVSPYAVGWLMQHLMWQTAFLGELWEVNAFDQPGVELGKVLTRKRLAG,not failed
9,MLRPAGLWRLCRRPWAARVPAENLGRREVTSGVSPRGSTSPRTLNIFDRDLKRKQKNWAARQPEPTKFDYLKEEVGSRIADRVYDIPRNFPLALDLGCGRGYIAQYLNKETIGKFFQAAIAENALKNSSETEIPTVSVLADEEFLPFKENTFDLVVSSLSLHWVNDLPRALEQIHYILKPDGVFIGAMFGGDTLYELRCSLQLAETEREGGFSPHISPFTAVNDLGHLLGRAGFNTLTVDTDEIQVNYPGMFELMEDLQGMGESNCAWNRKALLHRDTMLAAAAVYREMYRNEDGSVPATYQIYYMIGWKYHESQARPAERGSATVSFGELGKINNLMPPGKKSQ,failed
10,MLRQGAKHTACTGRRNDDDRTPKEQSMKIVVIGGTGLIGSNVVNRLRRDGHETVAASPGTGVNTITGEGLAQALDGAQVVVDVANSPSFEDQAVMAFFETSGRTLLAAEAAAGVTHHLALSVVGTDRLADSGYFRAKVAQEALIKASKVPYTILRATQFFEFIESIVNAGADGDTVRLSPALIQPIAADDVSAALADLAVGMPLNGTVEVAGPDRLPLDELARKFLAARGDRRQVVADVHARYFGSELDDRSLVAGDNPRVGSTRLMNWLSRSPAPQ,failed
11,MLRQSMNDYFEQPWYLTYADAERLSDLRDETLTLRDEEVTGHVPTEVEYEELQQVNDELAQRIGDMLKVHKEQGAAIDLALVLRDYLASHPRTHHFDLARMVVDQAVRLGYSESDYRAIQPDWTAINDFGAKVQANVIDRYLEHHHHHH,not failed
12,MLRSVYEMTKISKIIDELNNQQADAAWITTPLNVYYFTGYRSEPHERLFALLIKKDGKQVLFCPKMEVEEVKASPFTGEIVGYLDTENPFSLYPQTINKLLIESEHLTVARQKQLISGFNVNSFGDVDLTIKQLR,not failed
13,MLSAVRRANLYLNLFGFSKVPLIWLCHPKIIAIDSKHVEVRIPLRRRTKNHLNSMYFGALAVGADVAGGFLAMSKAQEKGEAISLAFKGVKAEFLKRPEADVHFVCNDGHVIDEMLDHTIATGERVNRDVKIIALCPSLHGQEPMAEFALTLSIKKAAQHTKLEHHHHHH,not failed
14,MLSERRLKVLRAIVQDYVGTEEPVGSKALTERHNLGVSPATVRNDMAALEDEGFIAQPHTSAGRIPTDKGYRLFVDKLAGVKPMTAPERRAIQNFLEGAVDLDDVVARTVRLLAQLTRQVAVVQYPSLTRSTVRHVELLSLAPARLMLVLITDTGRVEQRMVDCPAPFGEASLADLRARLNSRVAGRRFADVPALVEDLAEPFEAEDRGTVSTVLSTLLETLVEENEERLMIGGTANLTRFGHDFPLVIRPVLEALEEQVVLLKLLGEAKDPGVTVRIGHENAHEGLNSTSVVSVGYGSGGEAVAKLGVVGPTRMDYPGTMGAVRAVARYVGQILAES,failed
15,MLSIEVTVFAAIAYLTILFSIAYRGDRGASNRVRPYRYSLAQGVHCTSWAFFGTITQSAYYGWAFAPTYVGAIIVFILLHSLQLKLLNYCKHQNITSIADLIGTRYGKSPVLAGVVAITAFIAVVPYISLQLRAVTSSFATVTGFDTNPSWIFDLSFLVALTMIGFGFLFGTRRLSLAEQHSGLMDAIAFESLVKLAAFIIVGLFASYTVFDGLADLFQKSFETQHTQDVLAGREYGGYVFAVHMLLGGLSMFSLPRQFHVGYVENTHSDELKTARWAFPLYLFAINFFILPLSLSALHLAPELANQDTFMLVIPLMMDRPDITLIAFIGGLSAATSMVIIALLALSIMVSNDVVMPIWLRMTRQKLRQFSFTPTRILSIRRMTMVVVMFMAYLYYQATIESMPLVNSGLLSLALLTQLTPAILATVLWRSATQTGVLVGLVVGTALWVILLLVPSIGLQPQVTDIDIANGVLISLGANLICFWLFSLISKNVQTDLQSIQSSDDYEQQPSLTWARLRSLLSRFYDDRQLAAIQRRLRMDLLTPEGQSMVPAPMLVRIERELSAVIGTSASRLLLDTVSEQQEFPVSRVVDWATEASKLYQFNRELLQASVENIPQGISVVDQKLRLVAWNRRYLEIFDYPDGLVRAGMPVEELLRYNARRGLLSNSQNTDVEAEIQKRLNFLRTGSTYHYQRQQGELTVELQGSPMPGGGFVTTYSDITERVEAQRQLQKINQELEERVDERTQQLLSAKEAEEKAHESKSRFFAAVSHDLMQPFNAASLFCEMLQSRLPNEYLPLAVNIQRSLDHAEELLTMLLDMTKLDAGNLKPDYQEFSIDQALLPLVERYQAMAKEKQLRFHYHKSSALVKTDRKLLNRIIQNLLSNALRYTQHGRIVLGFRRHQQHLTICIIDTGSGIPEHKQTEIFREFHQLQSSGDNPGLGLGLSIVERMCRLLRIDLSLSSTLDKGTAFSLTLPVIGWQKEPQPVVIKNDSVDEKLLKDMRVLVIDNDPGVLKATAGLLTDWGAETMTASSFDQARKHPPCDLILADYHLDNGNTGIELVVSIRKLWNSNTPAIINSADPDELLREQALEANAYFIPKPLKSGALKRLLKRIRRI,failed
16,MLSIGSGKLLIGCVAGLLVLGGATLGLGIGGFADVPADSETTVGEDELEIRAVQTPTEIRPDEPLRVQLRLTNAGSETTTKQVALQLSGDGDQQSLETVATKQVEVSAAEPTNVTLTVEPEQLSSGEYTYAVAVGESSSPETTGSVAVLTPPTFVLDDTTENATIVRGTNVSIRANLTNAGAYRGVQTVRIAVDEDQNGQYTDAERLDESVYSLAGGQSQVSTATAHTTDMEPGRYQYKIATENTTATGTLSVQQPATFRVQNTTAPVNVTKGETANVSVVVKNVGDVDGTDNVTIRSDSLNTTYSRSVSLAANETTTVSIGVNTTNLSSGTHNHSLGTSTDTDPVSMTVQDSHFEVSDLDGPNVLYVGDMAVFSADVTNTGNITGTQSIQHRIDSDDDDRPEAYGVDRNVTLAPGESTRVRFEIDYTVTDSTEYPVEPLRLQTYVHGIYSEDARASTAMSVKPSWAKDGGSSSYSGSTSVSEGDRASLDEITQDKYGRHYDEVSGETKRQVEEIHERQPFADGLAAAEVRTREEIARQEYDADVKAGEKFNFTGLDIETQQKVESDFDAQFETDSGDRIESWDELANDTYETSYENLTTSRQADIRTTYQDQFE,failed
17,MLSINPNEQTEKDNYKLLTGSIIPRPVAFVTSVTKEGVLNGAPYSYFNIVAANPPLISVSVQRKAGERKDTSRNAIEKGEFVVHISDESYVAAINETAANLPPNESEIELAKLTPIESEVISVPGVKEANIRMECVLERAIPLGGTEDSPACDLLIGRVVRFHVAEHLYEKGRIHAEGLKPISRLAGHNYAKLGEQFELVRPI,not failed
18,MLSKILYADSGTSQTQEMLKAMMDFPAVQKASITILHVVPPQITTEAFTEKWAEGGKILADLLEDVAIEPSKVSTVLRQGDPKGVVCDVANEIDADLIIMGSRGLKRLEAILENSVSQYVFQLTNHPMLLVKDDIYVKRIKRVMVALDKSAAAEYALELALELLRDYPEGELILARVNPDLKPDLLPLSRQEIEENPVLAPAIAKAKRLGIAYRCTVTGGKPGEKLCELAEDYNADLMLLGSPDRRPSIAKSLPDLDRLLGTSLSDYIRVNAPCPVLLTRKEGI,failed
19,MLSSGITKAKGMAVVSEGSVPMDQSVGHLPASLLSLVSDPVPKEKVLLPKALRQTLLEKGCHNVRAHGFDAISTQASACSSVAQAGARHTQPSSRARAQVRGHTGDPLASTVSPDLTPDVYVLRVKLEETGELFRVANCRNDMTVRELKEELDLMVGIPFNLQRLHFLDRGILMDDATLKFYDVIPGALISLCIWHYDGWTELVLAAVEGDPSKMSCLGISEDTFYRTANSQHFKGEQWRQWTAQRAFVALYISAHRGHVDAVQYLLGLGANCLAKSPLGRTPLHVVAAMGRTDCVQPLLEHGASIHDRDLKSDTPITIARRLKRGHLEHKMFLLYWMVKSGSRDPDLVGRKALEKSSPGMATRRSTILIS,failed
20,MLSTGLDELVYRSNLIGSDRAVCNWGGGNTSMKTVEKDFRGREIAVMWVKGSGSDLATMGAKNFTGLNLEDIRPLIEREEMSDEEMVEYLGHCMIDRNHPRPSIETLLHAFLPFKHVDHTHPDAIISICCADNGKEIAKNLFGDRFVWVPYVRPGFSLSKLIAEGVQKNPHAELVLMEKHGLVVWGETAKESYDRTISVINEAEAYIRSRINESVIFGGGKLEHHHHHH,failed
